Six molecules from US8936925B2, “Reconstitution of 5-enolpyruvylshikimate-3-phosphate synthase activity by fragment complementation” (priority 2004, dated 2015) can be followed below.

B1: C299: E. coli EPSPS C-terminal fragment, residue 299 to C-terminus (protein, UniProt P0A6D3 299-427, looked up, fragment)
chain: GELNAIDMDMNHIPDAAMTIATAALFAKGTTTLRNIYNWRVKETDRLFAMATELRKVGAEVEEGHDYIRITPPEKLNFAEIATYNDHRMAMCFSLVALSDTPVTILDPKCTAKTFPDYFEQLARISQAA
B2: C260: E. coli EPSPS C-terminal fragment, residue 260 to C-terminus (protein, UniProt P0A6D3 260-427, looked up, fragment)
chain: VKVTGIGRNSMQGDIRFADVLEKMGATICWGDDYISCTRGELNAIDMDMNHIPDAAMTIATAALFAKGTTTLRNIYNWRVKETDRLFAMATELRKVGAEVEEGHDYIRITPPEKLNFAEIATYNDHRMAMCFSLVALSDTPVTILDPKCTAKTFPDYFEQLARISQAA
B3: N298: E. coli EPSPS N-terminal fragment, N-terminus to residue 298 (protein, UniProt P0A6D3 1-298, looked up, fragment)
chain: MESLTLQPIARVDGTINLPGSKSVSNRALLLAALAHGKTVLTNLLDSDDVRHMLNALTALGVSYTLSADRTRCEIIGNGGPLHAEGALELFLGNAGTAMRPLAAALCLGSNDIVLTGEPRMKERPIGHLVDALRLGGAKITYLEQENYPPLRLQGGFTGGNVDVDGSVSSQFLTALLMTAPLAPEDTVIRIKGDLVSKPYIDITLNLMKTFGVEIENQHYQQFVVKGGQSYQSPGTYLVEGDASSASYFLAAAAIKGGTVKVTGIGRNSMQGDIRFADVLEKMGATICWGDDYISCTR
B4: N376: E. coli EPSPS N-terminal fragment, N-terminus to residue 376 (protein, UniProt P0A6D3 1-376, looked up, fragment)
chain: MESLTLQPIARVDGTINLPGSKSVSNRALLLAALAHGKTVLTNLLDSDDVRHMLNALTALGVSYTLSADRTRCEIIGNGGPLHAEGALELFLGNAGTAMRPLAAALCLGSNDIVLTGEPRMKERPIGHLVDALRLGGAKITYLEQENYPPLRLQGGFTGGNVDVDGSVSSQFLTALLMTAPLAPEDTVIRIKGDLVSKPYIDITLNLMKTFGVEIENQHYQQFVVKGGQSYQSPGTYLVEGDASSASYFLAAAAIKGGTVKVTGIGRNSMQGDIRFADVLEKMGATICWGDDYISCTRGELNAIDMDMNHIPDAAMTIATAALFAKGTTTLRNIYNWRVKETDRLFAMATELRKVGAEVEEGHDYIRITPPEKLNF
B5: N371: E. coli EPSPS N-terminal fragment, N-terminus to residue 371 (protein, UniProt P0A6D3 1-371, looked up, fragment)
chain: MESLTLQPIARVDGTINLPGSKSVSNRALLLAALAHGKTVLTNLLDSDDVRHMLNALTALGVSYTLSADRTRCEIIGNGGPLHAEGALELFLGNAGTAMRPLAAALCLGSNDIVLTGEPRMKERPIGHLVDALRLGGAKITYLEQENYPPLRLQGGFTGGNVDVDGSVSSQFLTALLMTAPLAPEDTVIRIKGDLVSKPYIDITLNLMKTFGVEIENQHYQQFVVKGGQSYQSPGTYLVEGDASSASYFLAAAAIKGGTVKVTGIGRNSMQGDIRFADVLEKMGATICWGDDYISCTRGELNAIDMDMNHIPDAAMTIATAALFAKGTTTLRNIYNWRVKETDRLFAMATELRKVGAEVEEGHDYIRITPP
B6: N383: E. coli EPSPS N-terminal fragment, N-terminus to residue 383 (protein, UniProt P0A6D3 1-383, looked up, fragment)
chain: MESLTLQPIARVDGTINLPGSKSVSNRALLLAALAHGKTVLTNLLDSDDVRHMLNALTALGVSYTLSADRTRCEIIGNGGPLHAEGALELFLGNAGTAMRPLAAALCLGSNDIVLTGEPRMKERPIGHLVDALRLGGAKITYLEQENYPPLRLQGGFTGGNVDVDGSVSSQFLTALLMTAPLAPEDTVIRIKGDLVSKPYIDITLNLMKTFGVEIENQHYQQFVVKGGQSYQSPGTYLVEGDASSASYFLAAAAIKGGTVKVTGIGRNSMQGDIRFADVLEKMGATICWGDDYISCTRGELNAIDMDMNHIPDAAMTIATAALFAKGTTTLRNIYNWRVKETDRLFAMATELRKVGAEVEEGHDYIRITPPEKLNFAEIATYN

In one assay the test system is aroA gene-mutant E. coli strain AB2829. In words: In vivo complementation: growth on solid M63 restrictive medium. Details: key: −: failed to grow; +: able to grow. In kind it is cell-based. The following applies: C-terminal fragment alone. From the text:
The pKU2100 plasmid constructed as described above and corresponding pACYC1184 plasmid were introduced separately or together into the strain AB2829 deficient in E. coli aroA gene. Then, the strain was streaked on solid M63 restrictive medium and cultured overnight to determine the growth.
In order to test if EPSPS achieves fragment complementation after in vivo expression, genes encoding EPSPS N-terminal peptides were constructed into pACYC184, and genes encoding EPSPS C-terminal peptides were constructed into pBR322 (see the section Materials and Methods for the detailed construction method). Afterwards, these plasmids were introduced into aroA gene-mutant E. coli strain AB2829. EPSPS activity of the protein fragments encoded by these genes was determined by the growth of the strains on M63 restrictive medium.
The pACYC184 and pBR322 plasmids are able to be expressed in the same bacterial cell since they have replicons p15A and ColE1 respectively. In this regard, a pACYC184 plasmid was co-introduced into aroA gene-mutant E. coli strain AB2829 together with a corresponding pKU2100 plasmid, wherein the N-terminal peptide encoded by the pACYC184 plasmid and C-terminal peptide encoded by the pKU2100 plasmid are the two fragments divided at the same site from EPSPS. The resulting strains are streaked on M63 restrictive medium, and cultured at 37° C.
The pBR322 plasmids constructed in section 3.5 a and their relevant pACYC1184 plasmids constructed in section 3.5 b were introduced respectively or together into E. coli strain AB2829 deficient in aroA gene. Then the strains were streaked on solid M63 restrictive medium and cultured overnight to test the growth.
On to B1, for which the “complementation condition, C-terminal” value is “−”.
On to B2, for which the “complementation condition, C-terminal” value was “−”.

The assay is the same for the next values; noted with them: N-terminal fragment alone.
As to B3, the “complementation condition, N-terminal” value was “−”.
In the case of B4, the “complementation condition, N-terminal” value is reported as “−”.
On to B5, for which the “complementation condition, N-terminal” value is listed as “−”.
Regarding B6, the “complementation condition, N-terminal” value is listed as “−”.
